This note sets out measurements from patent publication US20180333502A1.

The target of this assay is activated human CD4 T cells (GITR) (human) (UniProt Q9Y5U5). The experiment in a line: FACS binding to activated human CD4 T cells; isotype control. On the technique in general: A flow cytometer gives signals particle by particle.

As a reminder, the EC50 is the concentration needed to bring the measured effect to its halfway point. A higher EC50 goes with lower potency in that assay.

Sequence of activated human CD4 T cells (GITR) (human) (Q9Y5U5 26-241): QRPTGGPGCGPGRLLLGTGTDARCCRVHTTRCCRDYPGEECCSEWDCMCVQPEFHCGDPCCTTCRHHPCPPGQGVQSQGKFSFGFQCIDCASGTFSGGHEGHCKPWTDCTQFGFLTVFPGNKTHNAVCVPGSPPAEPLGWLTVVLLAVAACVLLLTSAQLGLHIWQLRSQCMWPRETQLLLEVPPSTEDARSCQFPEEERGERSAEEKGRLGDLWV

On to unrelated hIgG2, for which the EC50 is 6.72 nM.

As for unrelated hIgG1, the EC50 turned out to be 132 nM.
